Changes are numbered by the printed parent chain.

Results on three molecules are retold here after patent US20220204611A1 (Amgen, published 2022).

Experiment [1] addresses T1, recombinant soluble human TREM2 protein (human TREM2 ECD-FlagHis) (human, UniProt Q9NZC2 19-174).
T1 sequence: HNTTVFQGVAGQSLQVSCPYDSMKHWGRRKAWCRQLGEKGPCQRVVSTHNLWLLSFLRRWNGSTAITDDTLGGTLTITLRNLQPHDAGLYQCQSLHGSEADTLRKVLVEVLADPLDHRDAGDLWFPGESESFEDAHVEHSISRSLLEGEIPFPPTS
Description: Octet BLI, antibody on anti-human Fc sensor, 25 C. On the procedure:
(§1) To quantitate the binding affinity of agonist antibodies for human TREM2, association and dissociation rate constants as well as the equilibrium dissociation constant were determined using anti-human Fc (Kinetic) sensors on an Octet® HTX instrument (Pall ForteBio). Agonist anti-TREM2 antibodies were made up in DMEM null media, 250 μL at 10 μg/mL. The, 250 uL of assay buffer (10 mM Tris (pH 7.6), 0.1% Triton X-100, 150 mM NaCl, 1mM CaCl₂, and 1 mg/mL BSA) was added to the antibody solutions to a final volume of 500 μL and final antibody concentration of 5 μg/mL. The anti-human Fc sensor was pre-incubated in 200 μL of the assay buffer for a minimum of 10 minutes. The sensor was then regenerated for 5 seconds in 10 mM glycine pH 1.5. Test agonist anti-TREM2 antibodies were loaded onto the sensor for 2 minutes, and baseline measurements were taken for 2 minutes. […] The recombinant TREM2 proteins were allowed to associate with the antibody-loaded sensor for 10 minutes, and then dissociation was measured for 10 minutes. The assay was conducted at 25° C. Experimental kinetic results were globally fit to a 1:1 binding model in order to determine the association and dissociation rate constants as well as the equilibrium dissociation constant.

In experiment [2] the target is T2, recombinant soluble cynomolgus TREM2 protein (cynomolgus TREM2 extracellular domain coupled to a Flag/His tag) (cynomolgus, UniProt A0A2K5UY34 49-204).
T2 construct: extracellular domain; also called Cyno TREM2
T2 sequence: T1 sequence with A10E, W60R, L89F, F125V
In words: Octet BLI, antibody on anti-human Fc sensor, 25 C. As to the method:
as §1

The target in experiment [3] is T1, recombinant soluble human TREM2 protein …. In words: Octet BLI binning; competitor: load Ab 10E3. On the procedure:
(§2) Each of sixteen different anti-TREM2 antibodies produced from hybridomas were quantitated and loaded onto one of the anti-human Fc sensors at 5 μg/mL for 2 minutes (“Load Antibody”). The sensor was then blocked with 100 μg/mL of an irrelevant human IgG2 antibody for 5 minutes. […] Next, each of the sixteen different anti-TREM2 antibodies (“Sandwich Antibody”) was added to the sensor at 5 μg/mL and allowed to bind for 5 minutes. All assay buffers contained 10 mM Tris (pH 7.6), 0.1% Triton X-100, 150 mM NaCl, 1 mM CaCl₂, and 1 mg/mL BSA. The assay was conducted at 25° C. Experimental kinetic results were fit to a 1:1 binding model.
(§3) However, if addition of the sandwich antibody produces a binding event, then the sandwich antibody binds to a different epitope on human TREM2 than the load antibody and the two antibodies are categorized into different epitope bins.

The target of experiment [4] is T3, human TREM2 on cells (human, UniProt Q9NZC2 19-230).
T3 sequence: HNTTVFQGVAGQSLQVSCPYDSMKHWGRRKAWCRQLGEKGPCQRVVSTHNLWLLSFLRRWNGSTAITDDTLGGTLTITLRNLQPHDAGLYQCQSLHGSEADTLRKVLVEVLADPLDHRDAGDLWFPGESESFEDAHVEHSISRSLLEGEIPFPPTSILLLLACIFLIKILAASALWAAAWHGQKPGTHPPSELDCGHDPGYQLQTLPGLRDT
In words: cell-based or functional assay.

Experiment [5] has as its target T1, recombinant soluble human TREM2 protein …. In words: Octet BLI binning; competitor: load Ab 32E3. On the procedure: as §2, §3
Experiment [6] shares this target. In words: Octet BLI binning; competitor: load Ab 26F2. As to the method: as §2, §3
The target is the same in experiment [7]. In words: Octet BLI binning; competitor: load Ab 4C5. As to the method:
as §2, §3

Experiment [8] has the same target. Description: Octet BLI binning; competitor: load Ab 4G10. As to the method: as §2, §3
For experiment [9] the target is unchanged. In words: Octet BLI binning; competitor: load Ab 24G6. On the procedure: as §2, §3
For experiment [10] the target is unchanged. In words: Octet BLI binning; competitor: load Ab 25F12. On the procedure:
as §2, §3

Experiment [11] concerns the target T4, soluble human TREM2 protein (TREM2 ECD-huIgG1 Fc fusion protein) (human, UniProt Q9NZC2 19-174, biotinylated).
T4 construct: also called biotinylated soluble human TREM2 protein
T4 sequence: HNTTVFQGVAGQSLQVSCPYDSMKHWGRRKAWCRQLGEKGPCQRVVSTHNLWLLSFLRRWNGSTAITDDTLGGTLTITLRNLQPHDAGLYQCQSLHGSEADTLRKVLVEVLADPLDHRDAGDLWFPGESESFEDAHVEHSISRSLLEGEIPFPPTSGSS
Description: ELISA, hybridoma supernatant on captured biotinylated TREM2 ECD-Fc. On the procedure: Exhausted hybridoma supernatants were tested for binding to human TREM2 by ELISA. Briefly, neutravidin plates were generated by incubating a 384 well Corning Assay Plate 3702 with neutravidin (Thermo 3100B) at 10 μg/mL (40 μL/well) in 1× PBS at 4° C. overnight. The plates were washed with 1× PBS using a Biotek plate washer and then blocked with 1% milk/1× PBS (90 μL/well) at room temperature (RT) for 30 minutes. The plates were then washed again with 1× PBS using the plate washer. […] The plates were then incubated at RT for 1 hour to immobilize the TREM2 protein to the wells of the plates. Following the incubation, the plates were again washed with 1× PBS using the plate washer. 10 μL of each hybridoma supernatant to be tested and 40 μL of 1% milk/1× PBS (1:5 dilution) were added to each well of the plates and incubated at RT for 1 hour. Again, the plates were washed with 1× PBS using the plate washer. […] After the plates were washed with 1× PBS using the plate washer, 40 μL/well of TMB substrate (Neogen, lot #150114) was added to the plates and the plates were incubated at RT for 30 minutes. The reaction was quenched with 1N hydrochloric acid (40 uL/well) following the incubation period. OD readings at 450 nm were obtained with a plate reader.

Experiment [12] addresses T3, human TREM2 on cells. Description: cell-based or functional assay. This is another data set of the same source.
In experiment [13] the target is T1, recombinant soluble human TREM2 protein …. Description: Octet BLI binning; competitor: load Ab 26A10. On the procedure: as §2, §3
Experiment [14] shares this target. Description: Octet BLI binning; competitor: load Ab 5E3. On the procedure: as §2, §3
Experiment [15] shares this target. In words: Octet BLI binning; competitor: load Ab 24F4. On the procedure: as §2, §3
Experiment [16] has the same target. In words: Octet BLI binning; competitor: load Ab 13E7. As to the method: as §2, §3
Experiment [17] shares this target. In words: Octet BLI binning; competitor: load Ab 16B8. On the procedure:
as §2, §3

The target is the same in experiment [18]. Description: Octet BLI binning; competitor: load Ab 24A10. As to the method:
as §2, §3

The target is the same in experiment [19]. In words: Octet BLI binning; competitor: load Ab 26C10. On the procedure: as §2, §3
For experiment [20] the target is unchanged. In words: Octet BLI binning; competitor: load Ab 6E7. As to the method: as §2, §3
Experiment [21] shares this target. In words: Octet BLI binning; competitor: load Ab 33B12. On the procedure:
as §2, §3

B1: 4C5 (antibody, V domains shown)
VH: EVQLVQSGAEVKKPGESLKISCKGSGHSFTNYWIAWVRQMPGKGLEWMGIIYPGDSDTRYSPSFQGQVTISADKSISTAYLQWSSLKASDTAVYFCARQRTFYYDSSGYFDYWGQGTLVTVSS
VL: DIQMTQSPSSVSASVGDRVTITCRASQGISNWLAWYQQKPGKAPKLLIYAASSLQVGVPLRFSGSGSGTDFTLTISSLQPEDFATYYCQQADSFPRNFGQGTKLEIK
notes: human IgG2 from hybridoma
As to B1, the Kd in experiment [1] was 3.1 nM; in experiment [2], 3.6 nM. Further, the sandwich binding signal was -0.005 in [3]; -0.01 in experiment [5]; 0.31 in experiment [6]; -0.014 in experiment [7]; -0.011 in experiment [8]; 0.268 in experiment [9]. Moreover, the sandwich binding signal in [10] was 0.265. The “pSyk EC50” value in [4] amounted to 0.18 nM. For the same molecule, in experiment [11], the “OD 450” value is 3.62 OD450. Also, in experiment [12], the “Emax (% maximum activation compared to RnD antibody)” value stood at 265%. Further, in [12], the “pSyk EC50, differentiated THP-1 cells” value came to 1.72 nM.

B2: 32E3 (antibody, human IgG2, V domains shown)
VH: EVQLVQSGAEVKKPGESLKISCKGSGYSFTSYWIGWVRQMPGKGLEWMGIIYPGDSDTRYSPSFQGQVTISADKSISTAYLQWSTLKASDTAIYYCARHDIIPAAPGAFDIWGQGTMVTVSS
VL: EFVLTQSPGTLSLSPGERATLSCRASQIISSNYLAWYQQKPGQAPRLLIYSASSRATGIPDRFSGSGSGTDFTLTISRLEPEDFAVYYCQQFDSSPITFGRGTRLDIK
notes: human IgG2 from hybridoma
B2: the sandwich binding signal in experiment [13] is 0.157; in [3], -0.023; in experiment [14] it was 0.176; in [15] it was -0.021; in experiment [16] it was -0.027; in [17], 0.12. Also, the sandwich binding signal in [5] is -0.01; in [18] it was 0.162; in experiment [6] it was 0.143; in experiment [7] it was -0.016; in [19], 0.141; in experiment [8], -0.02. For the same molecule, the sandwich binding signal is 0.126 in experiment [9], 0.154 in experiment [10], -0.024 in experiment [20] and 0.132 in [21]. Moreover, the “pSyk EC50” value in [4] amounted to 1.2 nM. Also, in experiment [11], the “OD 450” value amounted to 1.41 OD450. Besides, the “Emax (% maximum activation compared to RnD antibody)” value in experiment [12] turned out to be 197%. In addition, in [12], the “pSyk EC50, differentiated THP-1 cells” value was 1.25 nM.

B3: 4G10 (antibody, human IgG2, V domains shown)
VH: EVQLVQSGAEVKKPGESLKISCKGSGYSFPSYWIAWVRQMPGKGLEWMGIIYPGDSDTRYSPSFQGQVTISADKSISTAFLKWSSLKASDTAMYFCARQGIEVTGTGGLDVWGQGTTVTVSS
VL: DIQMTQSPSSLSASVGDRVTITCRASQGIRNDLGWYQQKPGNAPKRLIYAASSLPSGVPSRFSGSGSGPEFTLTISSLQPEDFATYYCLQHNSYPWTFGQGTKVEIT
notes: human IgG2 from hybridoma
Consider B3, for which the Kd in [1] amounted to 3.3 nM; in experiment [2], 1.7 nM. For the same molecule, the sandwich binding signal is -0.019 in [3]; -0.029 in [5]; 0.18 in [6]; -0.018 in experiment [7]; -0.026 in experiment [8]; 0.184 in experiment [9]. Moreover, the sandwich binding signal in [10] worked out at 0.199. For the same molecule, in experiment [4], the “pSyk EC50” value worked out at 0.47 nM. In addition, the “OD 450” value in [11] came out at 3.17 OD450. Further, in [12], the “Emax (% maximum activation compared to RnD antibody)” value came out at 236%. Besides, the “pSyk EC50, differentiated THP-1 cells” value in experiment [12] was determined as 0.579 nM.
